Results reported in patent US20210238283A1 (Y BIOLOGICS, published 2021).

Experiments:
[1] = molecular target: T1, human LAG-3 overexpressed on cells (human, UniProt P18627 23-525); experiment: cell-based or functional assay
T1 sequence (looked up): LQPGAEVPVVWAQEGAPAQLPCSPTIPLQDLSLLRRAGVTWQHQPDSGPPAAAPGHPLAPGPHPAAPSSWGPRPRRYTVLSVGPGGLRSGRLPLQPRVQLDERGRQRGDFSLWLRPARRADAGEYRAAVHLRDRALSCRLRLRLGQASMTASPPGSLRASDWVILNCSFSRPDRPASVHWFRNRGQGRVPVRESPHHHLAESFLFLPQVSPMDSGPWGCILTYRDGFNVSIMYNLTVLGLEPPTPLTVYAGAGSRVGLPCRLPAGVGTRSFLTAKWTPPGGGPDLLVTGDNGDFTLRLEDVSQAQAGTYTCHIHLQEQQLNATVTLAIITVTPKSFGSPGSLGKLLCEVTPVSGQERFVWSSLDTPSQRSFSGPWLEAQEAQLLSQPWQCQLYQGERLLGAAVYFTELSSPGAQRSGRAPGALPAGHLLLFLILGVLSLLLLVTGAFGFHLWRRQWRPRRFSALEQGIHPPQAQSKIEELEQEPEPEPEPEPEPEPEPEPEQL

[2] = molecular target: T2, recombinant human LAG-3 extracellular domain fused with mouse Fc (hLAG-3-mFc) (human, UniProt P18627 29-450); experiment: BLI (Octet QKe), 1:1 global fit
T2 construct: range 29-450; Made in HEK293F cells; also called human LAG-3 antigen; wild-type (WT) LAG-3; not shown: mouse Fc (mFc) at the carboxy terminal
T2 sequence (looked up): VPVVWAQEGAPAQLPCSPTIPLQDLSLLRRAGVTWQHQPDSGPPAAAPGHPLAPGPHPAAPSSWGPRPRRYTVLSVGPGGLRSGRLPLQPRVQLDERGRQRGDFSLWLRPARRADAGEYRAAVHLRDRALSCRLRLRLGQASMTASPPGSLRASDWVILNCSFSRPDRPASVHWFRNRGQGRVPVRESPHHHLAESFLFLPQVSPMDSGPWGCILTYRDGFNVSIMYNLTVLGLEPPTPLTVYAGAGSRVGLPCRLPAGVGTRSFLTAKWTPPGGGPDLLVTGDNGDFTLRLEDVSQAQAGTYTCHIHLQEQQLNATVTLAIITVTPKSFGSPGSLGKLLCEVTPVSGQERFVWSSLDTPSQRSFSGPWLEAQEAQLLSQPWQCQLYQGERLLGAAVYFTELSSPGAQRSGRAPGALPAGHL
Procedure: (§1) After stabilization for 10 minutes in a buffer (#18-1042, Fortebio Inc.), immobilized antigen or antibody was washed out for 5 minutes with the buffer. The antibody or antigen desired for binding was prepared at different concentrations (0.94-60 nM) in a 96-well plate (#655209, Greiner Bio-One, USA) and subjected to the association reaction for 10 minutes followed by dissociation reaction for 10 minutes or 30 minutes.

[3] = molecular target: T3, recombinant monkey LAG-3 fused with mouse Fc (MrhLAG-3-mFc) (monkey); experiment: BLI (Octet QKe), 1:1 global fit
T3 construct: also called monkey LAG-3 antigen
Procedure: as §1

[4] = molecular target: T4, recombinant mouse LAG-3 fused with mouse Fc (mLAG-Fc) (mouse, UniProt Q61790 24-442, limits assumed); experiment: BLI (Octet QKe), 1:1 global fit
T4 construct: also called mouse LAG-3 antigen; not shown: mouse Fc (mFc) at the carboxy terminal
T4 sequence (looked up): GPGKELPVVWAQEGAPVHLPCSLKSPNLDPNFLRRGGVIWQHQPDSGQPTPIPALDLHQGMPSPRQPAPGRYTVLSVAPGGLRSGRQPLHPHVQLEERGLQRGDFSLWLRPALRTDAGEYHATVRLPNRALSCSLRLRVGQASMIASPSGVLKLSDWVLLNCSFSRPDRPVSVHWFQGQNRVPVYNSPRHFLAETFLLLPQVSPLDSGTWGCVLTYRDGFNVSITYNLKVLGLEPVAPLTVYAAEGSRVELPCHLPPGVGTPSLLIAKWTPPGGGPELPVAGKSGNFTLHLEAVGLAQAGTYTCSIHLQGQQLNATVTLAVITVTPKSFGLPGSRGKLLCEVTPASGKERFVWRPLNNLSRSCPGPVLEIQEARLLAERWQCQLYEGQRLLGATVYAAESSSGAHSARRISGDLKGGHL
Procedure: as §1

[5] = molecular target: T5, monkey (Rhesus monkey) LAG-3 overexpressed on HEK293E cells (Rhesus monkey, UniProt A0A5F8A874 23-533); experiment: flow cytometry, HEK293E cells overexpressing monkey LAG-3
T5 construct: whole, on cells; also called HEK293E-MrhLAG3; MrhLAG3 (Rhesus Monkey)
T5 sequence: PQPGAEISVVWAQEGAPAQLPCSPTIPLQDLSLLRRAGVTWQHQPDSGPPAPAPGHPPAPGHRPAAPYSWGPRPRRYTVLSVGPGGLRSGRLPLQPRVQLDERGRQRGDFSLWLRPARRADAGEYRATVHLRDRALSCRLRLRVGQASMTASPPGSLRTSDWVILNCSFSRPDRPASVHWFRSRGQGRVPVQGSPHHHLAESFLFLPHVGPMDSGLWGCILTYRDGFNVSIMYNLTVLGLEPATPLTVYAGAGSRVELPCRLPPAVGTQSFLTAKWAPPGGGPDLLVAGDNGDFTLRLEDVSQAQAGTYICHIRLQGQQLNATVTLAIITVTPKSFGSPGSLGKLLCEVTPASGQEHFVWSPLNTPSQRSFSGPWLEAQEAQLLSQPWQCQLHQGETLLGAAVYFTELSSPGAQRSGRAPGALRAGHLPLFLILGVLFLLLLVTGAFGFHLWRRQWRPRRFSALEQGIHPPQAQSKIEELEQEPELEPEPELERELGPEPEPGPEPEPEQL
Procedure: After that, the cells were washed three times with PBS containing 2% FBS and then subjected to the reaction for 30 minutes at 4° C. with anti-human IgG antibody (#FI-3000, Vectorlabs) linked with FITC fluorescent. The cells were washed by the same washing process as above followed by suspension in 0.2 ml PBS containing 2% FBS. The cells were then analyzed by FACSCanto II flow cytometer.

B1: human anti-LAG-3 monoclonal antibody 1E09 (antibody, V domains shown)
VH: QVQLVQSGGDLVKPGGSLRLSCAASGFSFSDHYMNWIRQAPGKGLEWVAYIDTSATYIYYADSVKGRFTISRDNAKNSLYLQMNSLRAEDTAVYYCARDNWGSLDYWGQGALVTVSS
VL: DIQMTQSPSSLSPSVGDRVTITCQASQEISIYLNWYQQKPGKAPKLLIYDASNLETGVPSRFSGSGSGTDFTLTISSLQPEDFATYYCQQTYITPYTFGQGTKLDIK
notes: Tested as full IgG converted from scFv; also called LAG-3-1E09; Parent (1E09)
[1]
  EC50 value representing the capacity of recovering the inhibition: 0.0578 µg/mL
  activity against the control antibody (fold): ~2.9 times
[2]
  Kd: 0.0918 nM
[3]
  Kd: 0.328 nM
[4]
  Kd: 0.596 nM
[5]
  EC50: 0.246 µg/mL
